Source: publication PMC11252414, “Enhancing the performance of porous silicon biosensors: the interplay of nanostructure design and microfluidic integration”

Key:
Conditions in all cases: protein: commercial; label: none; single strand
[1] = biological target: T1, lactoferrin (LF) (bovine (milk), UniProt P24627 20-708); assay: RIFTS (porous Si interferometry); SHM (herringbone) microchannel, 30 ul/min; Selection buffer: PBS (137 mM NaCl, 10 mM Na2HPO4, 2.7 mM KCl, 2 mM KH2PO4) + 1 mM MgCl2, pH 7.4, room temperature; GI fluid at 37 C
[2] = biological target: T1, lactoferrin (LF); assay: RIFTS (porous Si interferometry); cell setup, selection buffer, Tris-passivated, 1 mM Mg2+; apparent; Selection buffer: PBS (137 mM NaCl, 10 mM Na2HPO4, 2.7 mM KCl, 2 mM KH2PO4) + 1 mM MgCl2, pH 7.4, room temperature; GI fluid at 37 C
[3] = biological target: T1, lactoferrin (LF); assay: RIFTS (porous Si interferometry); PEG-passivated, LF-spiked porcine GI fluid, 37 C; apparent, LOD 600 nM suggests uM; Selection buffer: PBS (137 mM NaCl, 10 mM Na2HPO4, 2.7 mM KCl, 2 mM KH2PO4) + 1 mM MgCl2, pH 7.4, room temperature; GI fluid at 37 C
[4] = biological target: T1, lactoferrin (LF); assay: RIFTS (porous Si interferometry); plain microchannel, 30 ul/min; Selection buffer: PBS (137 mM NaCl, 10 mM Na2HPO4, 2.7 mM KCl, 2 mM KH2PO4) + 1 mM MgCl2, pH 7.4, room temperature; GI fluid at 37 C
[5] = biological target: T1, lactoferrin (LF); assay: RIFTS (porous Si interferometry); impeller-integrated microchannel, 30 ul/min; Selection buffer: PBS (137 mM NaCl, 10 mM Na2HPO4, 2.7 mM KCl, 2 mM KH2PO4) + 1 mM MgCl2, pH 7.4, room temperature; GI fluid at 37 C

T1 sequence (P24627 20-708): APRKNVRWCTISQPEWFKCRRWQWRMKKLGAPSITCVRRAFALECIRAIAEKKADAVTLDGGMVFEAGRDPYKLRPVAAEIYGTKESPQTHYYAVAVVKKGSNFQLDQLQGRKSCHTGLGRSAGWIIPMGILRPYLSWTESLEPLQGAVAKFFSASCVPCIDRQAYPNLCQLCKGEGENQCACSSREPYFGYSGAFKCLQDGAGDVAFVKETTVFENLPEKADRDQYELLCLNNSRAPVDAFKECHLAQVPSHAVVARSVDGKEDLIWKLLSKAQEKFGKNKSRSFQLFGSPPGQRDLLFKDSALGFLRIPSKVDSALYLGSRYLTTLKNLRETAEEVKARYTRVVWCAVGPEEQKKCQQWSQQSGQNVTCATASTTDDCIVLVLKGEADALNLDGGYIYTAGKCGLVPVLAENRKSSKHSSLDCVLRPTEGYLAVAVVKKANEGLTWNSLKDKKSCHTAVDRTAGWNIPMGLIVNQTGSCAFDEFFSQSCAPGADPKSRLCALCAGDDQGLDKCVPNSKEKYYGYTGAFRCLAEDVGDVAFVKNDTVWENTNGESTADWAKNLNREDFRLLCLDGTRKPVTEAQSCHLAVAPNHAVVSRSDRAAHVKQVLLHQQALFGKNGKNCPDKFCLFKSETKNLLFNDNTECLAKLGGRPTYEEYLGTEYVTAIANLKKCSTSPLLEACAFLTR

B1: Lac 9-2 anti-LF aptamer with T10 spacer (ssDNA)
DNA: CAGGCAGGACACCGTAACCGGTGCATCTATGGCTACTAGCTCTTCCTGCCTATTTTTTTTTT
modifications: 3'-amino, coupled via NHS/EDC to carboxylated porous Si
Kd [1]: 1600 ± 600 nM
Kd [2]: 2100 ± 900 nM
Kd [3]: 11.8 ± 1.9 nM
Kd [4]: 2000 ± 1000 nM
Kd [5]: 1300 ± 600 nM
